Measurements taken from US5525708, “Covalent dimer of kit ligand” (CytoMed, Inc., dated 1996).

Columns and labels:
[1] = target: c-kit proto-oncogene (receptor of KL) on human cells (human, UniProt P10721); assay: cell-based or functional assay
[2] = target: c-kit proto-oncogene (receptor of KL) on murine cells (murine, UniProt P05532); assay: cell-based or functional assay

B1: murine covalent dimer kit ligand (KL-CD), biologically active form (ligand)
chain: MMKKTQTWIITCIYLQLLLFNPLVKTKEICGNPVTDNVKDITKLVANLPNDYMITLNYVAGMDVLPSHCWLRDMVIQLSLSLTTLLDKFSNISEGLSNYSIIDKLGKIVDDLVLCMEENAPKNIKESPKRPETRSFTPEEFFSIFNRSIDAFKDFMVASDTSDCV
modifications: at least one intermolecular disulfide bond between one of the four cysteines (4, 43, 89, 138) of one monomer and one of the four cysteines of the other monomer; which cysteines is not determined
[1]
  proliferation of human cell lines (M07e), 3H-thymidine incorporation: 10 fold
[2]
  proliferation of murine mast cells (BMMC), 3H-thymidine incorporation: 10 fold
